From US6033882A, “Chiral synthesis of 2-hydroxy carboxylic acids with a dehydrogenase” (Genzyme Corporation, priority 1994, dated 2000)
Like-named read-outs stand apart in the source and are kept apart here.

Legend:
[1] = target: T1, Lactobacillus delbrueckii ssp. Bulgaricus R-2-hydroxy acid dehydrogenase (LB2HADH), wild type (H206), SEQ ID NO:1 (Lactobacillus delbrueckii, UniProt Q48534); test: Steady-state kinetics of 2-keto acid reduction, followed by NADH oxidation; assay type: biochemical
T1 construct: no tag mentioned
T1 sequence (Q48534 1-333): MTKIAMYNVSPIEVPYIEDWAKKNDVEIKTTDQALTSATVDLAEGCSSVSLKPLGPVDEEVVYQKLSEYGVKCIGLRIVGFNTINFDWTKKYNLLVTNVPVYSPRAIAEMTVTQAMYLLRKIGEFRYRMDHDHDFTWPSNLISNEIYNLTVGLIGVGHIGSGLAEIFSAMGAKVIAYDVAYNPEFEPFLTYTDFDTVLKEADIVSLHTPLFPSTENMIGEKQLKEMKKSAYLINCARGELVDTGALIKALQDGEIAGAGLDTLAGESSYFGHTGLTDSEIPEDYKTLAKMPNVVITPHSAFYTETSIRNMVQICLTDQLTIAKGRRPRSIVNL
Source text: Since 1950, a number of workers have investigated the reduction of 2-oxo carboxylic acids catalysed by R-hydroxy acid dehydrogenases. For these studies, enzymes isolated from a variety of bacte rial sources have bee n employed. For a given 2-oxo acid, a given enzyme activity may be examined by UV spectroscopy and quantified with the Michaelis constant, Km, and the catalytic turnover, kcat.
The two compartment model for the binding pocket of the enzyme is illustrated in accompanying FIG. 1.
The substrate specificity of the purified enzyme was established by following the kinetics of reduction of a variety of 2-ketoacids (see Table 2 above).
(The steady-state kinetic constants of LB2HADH and H206Q in Table 6 below were obtained using standard stopped flow measurements.)

[2] = target: T2, Lactobacillus delbrueckii ssp. Bulgaricus R-2-hydroxy acid dehydrogenase (LB2HADH) variant H206Q (Q206 mutant, Histidine 206 replaced by glutamine) (Lactobacillus delbrueckii, UniProt Q48534, H207Q); test: as above; assay type: biochemical
T2 construct: no tag mentioned
T2 sequence (Q48534 1-333 H207Q): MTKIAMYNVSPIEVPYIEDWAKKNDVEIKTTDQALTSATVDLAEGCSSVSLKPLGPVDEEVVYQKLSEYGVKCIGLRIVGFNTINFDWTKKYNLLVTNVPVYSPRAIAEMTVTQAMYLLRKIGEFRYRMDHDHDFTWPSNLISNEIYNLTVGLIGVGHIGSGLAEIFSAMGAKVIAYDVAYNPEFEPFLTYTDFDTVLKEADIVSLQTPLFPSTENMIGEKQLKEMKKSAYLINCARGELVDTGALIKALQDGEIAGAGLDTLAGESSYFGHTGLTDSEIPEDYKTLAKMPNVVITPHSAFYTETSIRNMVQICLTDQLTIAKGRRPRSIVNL
Method: Glutamine 206 variant of LB2HADH:
A site-directed mutant was prepared from pGIN113 (Bernard, N., et al, Eur. J. Biochem., (1994), 224, 439-446) using a mutagenic oligonucleotide:
and the Promega "altered sites mutagenesis" kit. The enzyme was purified as for the wild type.
The vQ206 /vwt was 45 at 70 mM substrate.
The results are illustrated in accompanying FIG. 2, the Vmax values for H206Q being divided by 10 to obtain a clearer representation of comparative performance. […] (The steady-state kinetic constants of LB2HADH and H206Q in Table 6 below were obtained using standard stopped flow measurements.)

[3] = substrate: NC(=O)C1=CN([C@@H]2O[C@H](COP(=O)(O)OP(=O)(O)OC[C@H]3O[C@@H](n4cnc5c(N)ncnc54)[C@H](O)[C@@H]3O)[C@@H](O)[C@H]2O)C=CC1; test: purified protein, by the assay type; conditions: other: pH 5.5, stopped flow
[4] = substrate: CC(=O)C(=O)O; test: purified protein, by the assay type; assay type: biochemical, Lactobacillus delbrueckii ssp. Bulgaricus; conditions: other: pH 7.5; [NADH] = 0.2 mM; pH 7.5
[5] = substrate: CC(C)C(=O)C(=O)O; test: purified protein, by the assay type; assay type: biochemical, Lactobacillus delbrueckii ssp. Bulgaricus; conditions: other: pH 7.5; [NADH] = 0.2 mM; pH 7.5
[6] = substrate: CC(C)CC(=O)C(=O)O; test: purified protein, by the assay type; assay type: biochemical, Lactobacillus delbrueckii ssp. Bulgaricus
[7] = substrate: CCC(=O)C(=O)O; test: purified protein, by the assay type; assay type: biochemical, Lactobacillus delbrueckii ssp. Bulgaricus; conditions: other: pH 7.5; [NADH] = 0.2 mM; pH 7.5
[8] = substrate: CCCC(=O)C(=O)O; test: purified protein, by the assay type; assay type: biochemical, Lactobacillus delbrueckii ssp. Bulgaricus; conditions: other: pH 7.5; [NADH] = 0.2 mM; pH 7.5
[9] = substrate: CCCCC(=O)C(=O)O; test: purified protein, by the assay type; assay type: biochemical, Lactobacillus delbrueckii ssp. Bulgaricus; conditions: other: pH 7.5; [NADH] = 0.2 mM; pH 7.5
[10] = substrate: O=C(O)C(=O)CCC1CCCC1; test: purified protein, by the assay type; assay type: biochemical, Lactobacillus delbrueckii ssp. Bulgaricus
[11] = substrate: O=C(O)C(=O)CCc1ccccc1; test: purified protein, by the assay type; assay type: biochemical, Lactobacillus delbrueckii ssp. Bulgaricus; conditions: other: pH 7.5; [NADH] = 0.2 mM; pH 7.5
[12] = other: pH 5.0, stopped flow, pH 5.0
[13] = other: pH 5.5, stopped flow, pH 5.5
[14] = other: pH 6.0, stopped flow, pH 6.0
[15] = other: pH 6.5, stopped flow, pH 6.5
[16] = other: pH 7.5, [NADH] = 0.2 mM, pH 7.5

Molecule: CC(C)CC(=O)C(=O)O [ketoisocaproate, 4-methyl-2-oxo-pentanoic acid]
- Ki ([1]; pH 5.5, stopped flow, read-out: Ki KIC): 0.24 mM
- Vm/KM ([1]; pH 6): 5e+06 M⁻¹ s⁻¹
- Ki ([1]; pH 6.0, stopped flow, read-out: Ki KIC): 0.31 mM
- Vm (VM (app): turnover at optimal substrate concentration) ([1]; pH 7.5, [NADH] = 0.2 mM): 20 s⁻¹
- Ki ([2]; read-out: Ki KIC, pH 5.0, stopped flow): 3.5 mM
- Ki ([2]; read-out: Ki KIC, pH 5.5, stopped flow): 8.1 mM
- Ki ([2]; read-out: Ki KIC, pH 6.0, stopped flow): 5.8 mM
- Ki ([2]; read-out: Ki KIC, pH 6.5, stopped flow): 7.6 mM

Molecule: O=C(O)C(=O)CCc1ccccc1 [benzylpyruvate, 2-oxo-4-phenyl butanoate]
- Vm (VM (app): turnover at optimal substrate concentration) ([1]; pH 7.5, [NADH] = 0.2 mM): 51 s⁻¹

Molecule: O=C(O)C(=O)CCC1CCCC1 [cyclopentylmethyl, 4-cyclopentyl-2-keto-butanoate]
- Ki ([1]; substrate inhibition, wild type, read-out: Ki (substrate)): 2 mM
- Ki ([2]; read-out: Ki (substrate), substrate inhibition, Q206 mutant): > 100 mM

Molecule: CC(=O)C(=O)O [pyruvate]
- Vm (VM (app): turnover at optimal substrate concentration) ([1]; pH 7.5, [NADH] = 0.2 mM): 48 s⁻¹

Molecule: O=C(O)C(=O)Cc1ccccc1 [phenylpyruvate]
- Km ([1]; pH 7.5, [NADH] = 0.2 mM, read-out: Km (KM (app): substrate concentration for 0.5 Vmax)): 31 µM

B1: Lactobacillus delbrueckii ssp. Bulgaricus R-2-hydroxy acid dehydrogenase (LB2HADH), wild type (H206), SEQ ID NO:1 (Lactobacillus delbrueckii) (protein)
chain: MTKIAMYNVSPIEVPYIEDWAKKNDVEIKTTDQALTSATVDLAEGCSSVSLKPLGPVDEEVVYQKLSEYGVKCIGLRIVGFNTINFDWTKKYNLLVTNVPVYSPRAIAEMTVTQAMYLLRKIGEFRYRMDHDHDFTWPSNLISNEIYNLTVGLIGVGHIGSGLAEIFSAMGAKVIAYDVAYNPEFEPFLTYTDFDTVLKEADIVSLHTPLFPSTENMIGEKQLKEMKKSAYLINCARGELVDTGALIKALQDGEIAGAGLDTLAGESSYFGHTGLTDSEIPEDYKTLAKMPNVVITPHSAFYTETSIRNMVQICLTDQLTIAKGRRPRSIVNL
notes: no tag mentioned
- Km [3]: 15 µM
- Km [4]: 20000 µM
- Km [5]: 20000 µM
- Km [6, 12]: 25 µM
- kcat [6, 12]: 170 s⁻¹
- kcat/Km [6, 12]: 7e+06 M⁻¹ s⁻¹
- Km [6, 13]: 30 µM
- kcat [6, 13]: 240 s⁻¹
- kcat/Km [6, 13]: 8e+06 M⁻¹ s⁻¹
- Km [6, 14]: 50 µM
- kcat [6, 14]: 245 s⁻¹
- kcat/Km [6, 14]: 5e+06 M⁻¹ s⁻¹
- Km [6, 15]: 15 µM
- kcat [6, 15]: 75 s⁻¹
- kcat/Km [6, 15]: 5e+06 M⁻¹ s⁻¹
- Km [6, 16]: 22 µM
- kcat/Km [6, 16]: 910000 M⁻¹ s⁻¹
- Km [7]: 1700 µM
- kcat/Km [7]: 28000 M⁻¹ s⁻¹
- Km [8]: 57 µM
- kcat/Km [8]: 330000 M⁻¹ s⁻¹
- Km [9]: 20 µM
- kcat/Km [9]: 650000 M⁻¹ s⁻¹
- Km ([10]; other: 0.2 mM NADH, wild type): 8 µM
- kcat ([10]; other: 0.2 mM NADH, wild type): 25 s⁻¹
- Km [10, 16]: 10 µM
- kcat/Km [10, 16]: 2.8e+06 M⁻¹ s⁻¹
- Km [11]: 36 µM
- kcat/Km [11]: 1.4e+06 M⁻¹ s⁻¹
